B1: pCEP4-1NT8-15CT20 (other)
chain: EDCNELPPRRNTEILTGSWSDQTYPEGTQAIYKCRPGYRSLGNVIMVCRKGEWVALNPLRKCQKRPCGHPGDTPFGTFTLTGGNVFEYGVKAVYTCNEGYQLLGEINYRECDTDGWTNDIPICEVVKCLPVTAPENGKIVSSAMEPDREYHFGQAVRFVCNSGYKIEGDEEMHCSDDGFWSKEKPKCVEISCKSPDVINGSPISQKIIYKENERFQYKCNMGYEYSERGDAVCTESGWRPLPSCEEKSCDNPYIPNGDYSPLRIKHRTGDEITYQCRNGFYPATRGNTAKCTSTGWIPAPRCTLKPCDYPDIKHGGLYHENMRRPYFPVAVGKYYSYYCDEHFETPSGSYWDHIHCTQDGWSPAVPCLRKCYFPYLENGYNQNYGRKFVQGKSIDVACHPGYALPKAQTTVTCMENGWSPTPRCIRVKTCSKSSIDIENGFISESQYTYALKEKAKYQCKLGYVTADGETSGSITCGKDGWSAQPTCIKSGASGCSQPPQIEHGTINSSRSSQESYAHGTKLSYTCEGGFRISEENETTCYMGKWSSPPQCEGLPCKSPPEISHGVVAHMSDSYQYGEEVTYKCFEGFGIDGPAIAKCLGEKWSHPPSCIKTDCLSLPSFENAIPMGEKKDVYKAGEQVTYTCATYYKMDGASNVTCINSRWTGRPTCRDTSCVNPPTVQNAYIVSRQMSKYPSGERVRYQCRSPYEMFGDEEVMCLNGNWTEPPQCKDSTGKCGPPPPIDNGDITSFPLSVYAPASSVEYQCQNLYQLEGNKRITCRNGQWSEPPKCLHPCVISREIMENYNIALRWTAKQKLYSRTGESVEFVCKRGYRLSSRSHTLRTTCWDGKLEYPTCAKRGGSGHHHHHH
B2: pCEP4-1NT7-9CT20 (other)
chain: EDCNELPPRRNTEILTGSWSDQTYPEGTQAIYKCRPGYRSLGNVIMVCRKGEWVALNPLRKCQKRPCGHPGDTPFGTFTLTGGNVFEYGVKAVYTCNEGYQLLGEINYRECDTDGWTNDIPICEVVKCLPVTAPENGKIVSSAMEPDREYHFGQAVRFVCNSGYKIEGDEEMHCSDDGFWSKEKPKCVEISCKSPDVINGSPISQKIIYKENERFQYKCNMGYEYSERGDAVCTESGWRPLPSCEEKSCDNPYIPNGDYSPLRIKHRTGDEITYQCRNGFYPATRGNTAKCTSTGWIPAPRCTLKPCDYPDIKHGGLYHENMRRPYFPVAVGKYYSYYCDEHFETPSGSYWDHIHCTQDGWSPAVPCLRKCYFPYLENGYNQNYGRKFVQGKSIDVACHPGYALPKAQTTVTCMENGWSPTPRCIRVKTGASGCDIPVFMNARTKNDFTWFKLNDTLDYECHDGYESNTGSTTGSIVCGYNGWSDLPICYERECELPKIDVHLVPDRKKDQYKVGEVLKFSCKPGFTIVGPNSVQCYHFGLSPDLPICKEQVQSCGPPPELLNGNVKEKTKEEYGHSEVVEYYCNPRFLMKGPNKIQCVDGEWTTLPVCIVEESTCGDIPELEHGWAQLSSPPYYYGDSVEFNCSESFTMIGHRSITCIHGVWTQLPQCVAIDKLKKCKSSNLIILEEHLKNKKEFDHNSNIRYRCRGKEGWIHTVCINGRWDPEVNCSMAQIQLCPPPPQIPNSHNMTTTLNYRDGEKVSVLCQENYLIQEGEEITCKDGRWQSIPLCVEKIPCSQPPQIEHGTINSSRSSQESYAHGTKLSYTCEGGFRISEENETTCYMGKWSSPPQCEGLPCKSPPEISHGVVAHMSDSYQYGEEVTYKCFEGFGIDGPAIAKCLGEKWSHPPSCIKTDCLSLPSFENAIPMGEKKDVYKAGEQVTYTCATYYKMDGASNVTCINSRWTGRPTCRDTSCVNPPTVQNAYIVSRQMSKYPSGERVRYQCRSPYEMFGDEEVMCLNGNWTEPPQCKDSTGKCGPPPPIDNGDITSFPLSVYAPASSVEYQCQNLYQLEGNKRITCRNGQWSEPPKCLHPCVISREIMENYNIALRWTAKQKLYSRTGESVEFVCKRGYRLSSRSHTLRTTCWDGKLEYPTCAKRGGSGHHHHHH
B3: pCEP4-1NT4-15CT20 (other)
chain: EDCNELPPRRNTEILTGSWSDQTYPEGTQAIYKCRPGYRSLGNVIMVCRKGEWVALNPLRKCQKRPCGHPGDTPFGTFTLTGGNVFEYGVKAVYTCNEGYQLLGEINYRECDTDGWTNDIPICEVVKCLPVTAPENGKIVSSAMEPDREYHFGQAVRFVCNSGYKIEGDEEMHCSDDGFWSKEKPKCVEISCKSPDVINGSPISQKIIYKENERFQYKCNMGYEYSERGDAVCTESGWRPLPSCEEKSGASGCSQPPQIEHGTINSSRSSQESYAHGTKLSYTCEGGFRISEENETTCYMGKWSSPPQCEGLPCKSPPEISHGVVAHMSDSYQYGEEVTYKCFEGFGIDGPAIAKCLGEKWSHPPSCIKTDCLSLPSFENAIPMGEKKDVYKAGEQVTYTCATYYKMDGASNVTCINSRWTGRPTCRDTSCVNPPTVQNAYIVSRQMSKYPSGERVRYQCRSPYEMFGDEEVMCLNGNWTEPPQCKDSTGKCGPPPPIDNGDITSFPLSVYAPASSVEYQCQNLYQLEGNKRITCRNGQWSEPPKCLHPCVISREIMENYNIALRWTAKQKLYSRTGESVEFVCKRGYRLSSRSHTLRTTCWDGKLEYPTCAKRGGSGHHHHHH
B4: pCEP4-1NT9-13CT20 (other)
chain: EDCNELPPRRNTEILTGSWSDQTYPEGTQAIYKCRPGYRSLGNVIMVCRKGEWVALNPLRKCQKRPCGHPGDTPFGTFTLTGGNVFEYGVKAVYTCNEGYQLLGEINYRECDTDGWTNDIPICEVVKCLPVTAPENGKIVSSAMEPDREYHFGQAVRFVCNSGYKIEGDEEMHCSDDGFWSKEKPKCVEISCKSPDVINGSPISQKIIYKENERFQYKCNMGYEYSERGDAVCTESGWRPLPSCEEKSCDNPYIPNGDYSPLRIKHRTGDEITYQCRNGFYPATRGNTAKCTSTGWIPAPRCTLKPCDYPDIKHGGLYHENMRRPYFPVAVGKYYSYYCDEHFETPSGSYWDHIHCTQDGWSPAVPCLRKCYFPYLENGYNQNYGRKFVQGKSIDVACHPGYALPKAQTTVTCMENGWSPTPRCIRVKTCSKSSIDIENGFISESQYTYALKEKAKYQCKLGYVTADGETSGSITCGKDGWSAQPTCIKSCDIPVFMNARTKNDFTWFKLNDTLDYECHDGYESNTGSTTGSIVCGYNGWSDLPICYEREGASGCKSSNLIILEEHLKNKKEFDHNSNIRYRCRGKEGWIHTVCINGRWDPEVNCSMAQIQLCPPPPQIPNSHNMTTTLNYRDGEKVSVLCQENYLIQEGEEITCKDGRWQSIPLCVEKIPCSQPPQIEHGTINSSRSSQESYAHGTKLSYTCEGGFRISEENETTCYMGKWSSPPQCEGLPCKSPPEISHGVVAHMSDSYQYGEEVTYKCFEGFGIDGPAIAKCLGEKWSHPPSCIKTDCLSLPSFENAIPMGEKKDVYKAGEQVTYTCATYYKMDGASNVTCINSRWTGRPTCRDTSCVNPPTVQNAYIVSRQMSKYPSGERVRYQCRSPYEMFGDEEVMCLNGNWTEPPQCKDSTGKCGPPPPIDNGDITSFPLSVYAPASSVEYQCQNLYQLEGNKRITCRNGQWSEPPKCLHPCVISREIMENYNIALRWTAKQKLYSRTGESVEFVCKRGYRLSSRSHTLRTTCWDGKLEYPTCAKRGGSGHHHHHH
B5: pCEP4-1NT7-15CT20 (other)
chain: EDCNELPPRRNTEILTGSWSDQTYPEGTQAIYKCRPGYRSLGNVIMVCRKGEWVALNPLRKCQKRPCGHPGDTPFGTFTLTGGNVFEYGVKAVYTCNEGYQLLGEINYRECDTDGWTNDIPICEVVKCLPVTAPENGKIVSSAMEPDREYHFGQAVRFVCNSGYKIEGDEEMHCSDDGFWSKEKPKCVEISCKSPDVINGSPISQKIIYKENERFQYKCNMGYEYSERGDAVCTESGWRPLPSCEEKSCDNPYIPNGDYSPLRIKHRTGDEITYQCRNGFYPATRGNTAKCTSTGWIPAPRCTLKPCDYPDIKHGGLYHENMRRPYFPVAVGKYYSYYCDEHFETPSGSYWDHIHCTQDGWSPAVPCLRKCYFPYLENGYNQNYGRKFVQGKSIDVACHPGYALPKAQTTVTCMENGWSPTPRCIRVKTGASGCSQPPQIEHGTINSSRSSQESYAHGTKLSYTCEGGFRISEENETTCYMGKWSSPPQCEGLPCKSPPEISHGVVAHMSDSYQYGEEVTYKCFEGFGIDGPAIAKCLGEKWSHPPSCIKTDCLSLPSFENAIPMGEKKDVYKAGEQVTYTCATYYKMDGASNVTCINSRWTGRPTCRDTSCVNPPTVQNAYIVSRQMSKYPSGERVRYQCRSPYEMFGDEEVMCLNGNWTEPPQCKDSTGKCGPPPPIDNGDITSFPLSVYAPASSVEYQCQNLYQLEGNKRITCRNGQWSEPPKCLHPCVISREIMENYNIALRWTAKQKLYSRTGESVEFVCKRGYRLSSRSHTLRTTCWDGKLEYPTCAKRGGSGHHHHHH
B6: pCEP4-1NT9-19CT20 (other)
chain: EDCNELPPRRNTEILTGSWSDQTYPEGTQAIYKCRPGYRSLGNVIMVCRKGEWVALNPLRKCQKRPCGHPGDTPFGTFTLTGGNVFEYGVKAVYTCNEGYQLLGEINYRECDTDGWTNDIPICEVVKCLPVTAPENGKIVSSAMEPDREYHFGQAVRFVCNSGYKIEGDEEMHCSDDGFWSKEKPKCVEISCKSPDVINGSPISQKIIYKENERFQYKCNMGYEYSERGDAVCTESGWRPLPSCEEKSCDNPYIPNGDYSPLRIKHRTGDEITYQCRNGFYPATRGNTAKCTSTGWIPAPRCTLKPCDYPDIKHGGLYHENMRRPYFPVAVGKYYSYYCDEHFETPSGSYWDHIHCTQDGWSPAVPCLRKCYFPYLENGYNQNYGRKFVQGKSIDVACHPGYALPKAQTTVTCMENGWSPTPRCIRVKTCSKSSIDIENGFISESQYTYALKEKAKYQCKLGYVTADGETSGSITCGKDGWSAQPTCIKSCDIPVFMNARTKNDFTWFKLNDTLDYECHDGYESNTGSTTGSIVCGYNGWSDLPICYEREGASGCGPPPPIDNGDITSFPLSVYAPASSVEYQCQNLYQLEGNKRITCRNGQWSEPPKCLHPCVISREIMENYNIALRWTAKQKLYSRTGESVEFVCKRGYRLSSRSHTLRTTCWDGKLEYPTCAKRGGSGHHHHHH

molecular target: C3 convertase complex (UniProt P01024 23-1663; P00751 260-764); experiment: cell-based or functional assay
Sequence (P01024 23-1663, chain 1 of 2): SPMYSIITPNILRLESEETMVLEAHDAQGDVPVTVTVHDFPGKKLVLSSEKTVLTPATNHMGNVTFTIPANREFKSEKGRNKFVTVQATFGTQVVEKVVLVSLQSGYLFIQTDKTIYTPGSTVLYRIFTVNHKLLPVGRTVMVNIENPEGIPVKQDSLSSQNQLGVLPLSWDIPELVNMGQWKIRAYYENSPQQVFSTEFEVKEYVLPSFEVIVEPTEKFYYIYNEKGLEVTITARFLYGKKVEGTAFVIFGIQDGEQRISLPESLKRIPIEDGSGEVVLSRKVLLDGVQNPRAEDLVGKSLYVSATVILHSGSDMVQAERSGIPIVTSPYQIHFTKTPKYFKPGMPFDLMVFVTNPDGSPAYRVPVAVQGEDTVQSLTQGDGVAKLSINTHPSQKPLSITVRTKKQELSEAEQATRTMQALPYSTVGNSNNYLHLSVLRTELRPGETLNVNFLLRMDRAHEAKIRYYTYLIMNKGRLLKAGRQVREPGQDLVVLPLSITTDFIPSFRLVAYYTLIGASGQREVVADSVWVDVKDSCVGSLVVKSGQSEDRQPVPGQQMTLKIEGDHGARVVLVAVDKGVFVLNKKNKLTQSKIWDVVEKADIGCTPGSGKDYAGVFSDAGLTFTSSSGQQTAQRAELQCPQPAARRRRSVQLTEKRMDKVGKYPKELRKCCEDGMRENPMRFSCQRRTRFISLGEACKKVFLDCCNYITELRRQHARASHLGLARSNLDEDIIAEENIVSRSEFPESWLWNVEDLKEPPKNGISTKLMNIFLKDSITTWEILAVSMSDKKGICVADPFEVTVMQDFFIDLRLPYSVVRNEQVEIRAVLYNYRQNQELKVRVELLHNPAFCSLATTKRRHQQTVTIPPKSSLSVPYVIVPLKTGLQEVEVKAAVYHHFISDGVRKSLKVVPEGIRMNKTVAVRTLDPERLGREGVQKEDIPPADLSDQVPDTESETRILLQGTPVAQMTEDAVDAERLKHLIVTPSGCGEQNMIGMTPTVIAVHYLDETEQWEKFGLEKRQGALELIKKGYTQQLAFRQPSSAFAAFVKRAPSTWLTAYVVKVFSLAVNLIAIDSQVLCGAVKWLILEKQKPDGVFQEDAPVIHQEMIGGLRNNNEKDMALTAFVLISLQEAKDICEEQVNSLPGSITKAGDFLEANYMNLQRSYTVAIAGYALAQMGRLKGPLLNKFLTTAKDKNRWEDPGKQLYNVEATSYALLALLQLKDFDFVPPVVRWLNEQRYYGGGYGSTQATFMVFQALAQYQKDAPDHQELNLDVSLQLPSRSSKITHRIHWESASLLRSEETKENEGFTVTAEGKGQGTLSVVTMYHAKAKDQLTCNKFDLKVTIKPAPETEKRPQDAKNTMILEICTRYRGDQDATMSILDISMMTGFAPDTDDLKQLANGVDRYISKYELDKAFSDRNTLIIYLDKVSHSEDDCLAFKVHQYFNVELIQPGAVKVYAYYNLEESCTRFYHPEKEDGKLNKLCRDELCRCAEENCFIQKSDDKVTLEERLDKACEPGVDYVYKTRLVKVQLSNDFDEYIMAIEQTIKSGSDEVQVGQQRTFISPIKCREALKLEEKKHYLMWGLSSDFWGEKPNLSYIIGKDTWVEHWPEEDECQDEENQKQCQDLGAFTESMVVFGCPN
Sequence (P00751 260-764, chain 2 of 2): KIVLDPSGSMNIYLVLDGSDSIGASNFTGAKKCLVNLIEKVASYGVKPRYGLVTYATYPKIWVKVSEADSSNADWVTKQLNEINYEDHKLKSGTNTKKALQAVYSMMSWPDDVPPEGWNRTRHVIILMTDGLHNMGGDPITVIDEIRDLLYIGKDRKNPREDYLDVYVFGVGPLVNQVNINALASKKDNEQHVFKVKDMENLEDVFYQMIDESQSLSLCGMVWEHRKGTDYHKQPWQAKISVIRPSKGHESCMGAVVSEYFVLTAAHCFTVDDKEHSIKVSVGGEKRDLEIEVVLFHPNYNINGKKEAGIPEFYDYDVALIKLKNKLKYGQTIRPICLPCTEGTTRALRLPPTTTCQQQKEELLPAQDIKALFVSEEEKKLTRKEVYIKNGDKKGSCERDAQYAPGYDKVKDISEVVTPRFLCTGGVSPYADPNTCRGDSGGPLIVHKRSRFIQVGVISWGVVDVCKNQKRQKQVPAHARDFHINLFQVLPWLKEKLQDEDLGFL
Wherever C3 convertase activity % of the control is given: test concentration or dose not given here.

Row | Binder | C3 convertase activity % of the control | C3 convertase activity IC50 [µg/mL]
1 | B1 | 58 % of the control | 0.628
2 | B2 | 156 % of the control | 0.252
3 | B3 | 58 % of the control | 0.206
4 | B4 | 56 % of the control | 0.166
5 | B5 | 56 % of the control | 0.639
6 | B6 | 49 % of the control | 0.217
